# B1: TPR t1 (parent)
# chain: GACCAAUCUGCCCUCAGAGCUCGAGAACAUCUUCGGAUGCAGAGGAGGCAGGCUUCGGUGGCGCGAUAGCGCCAACGUCCUCAACCUCCAAUGCAUCCCACCACAUGAUGAUGCCUGAAGAGCCUUGGUUUUUUG
# Variants of: B1
# Assay: polymerase ribozyme fitness, log enrichment relative to wild type (log ratio); higher = more active; in vitro selection for triplet polymerase activity
# Method in brief: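 Fitness measures genotype enrichment against wild-type enrichment on a logarithmic scale, with inverse-variance-weighted averaging of replicates. The logarithm is base 2, and genotypes were kept only with ≥10 input reads and ≥1 read per output in Illumina sequencing. The sequenced libraries came from one triplicate in vitro selection round, including frozen incubation at −7 °C, of PCR-built, transcribed mutant libraries of each subunit of a heterodimeric triplet polymerase ribozyme.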
row,Variant,polymerase ribozyme fitness (log ratio)
1,GACCAAUCUGCCCUCAGAGCUCGAGAAUAUCUUCGGAUGCAGAGGAGGCAGGCUUCGGUGGCGCGAUAGCGCCAACGUCCUCAACAUCCAAUGCAUCCCACCACAUGAUGAUGCCUGAAGAGCCUUGGUUUUUUG [C28U C86A],-2.8
2,GACCAAUCUGCCCUCAGAGCUCGAGAAUAUCUUCGGAUGCAGAGGAGGCAGGCUUCGGUGGCGCGAUAGCGCCAACGUCCUCAACCUCCAAUGCAUCCCACCACAUGAUGAUGCCUGAAGAGCAAUGGUUUUUUG [C28U C124A U125A],-0.0946
3,GACCAAUCUGCCCUCAGAGCUCGAGAAUAUCUUCGGAUGCAGAGGAGGCAGGCUUCGGUGCCGCGAUAGCGCCAACGUCCUCAACCUCCAAUGCAUCCCACCACAAGAUGAUCCCUGAAGAGCCUUGGUUUUUUG [C28U G61C U106A G113C],-5.31
4,GACCAAUCUGCCCUCAGAGCUCGAGAAUAUCUUCGGAUGCAGAGGAGGCAGGCUUCGGUGGCGCGAUAGCGCCAACGUCCUCAACCUCCAAUGCAUCCCCCUACAUGAUGACGCCUGAAGAGCCUUGGUUUUUUG [C28U A100C C102U U112C],-4.83
5,GACCAAUCUGCCCUCAGAGCUCGAGAAUAUCUUCGGAUGCAGAGAAGGCAGGCUUCGGUGGCGCGAUAGCGCCAACGUCCUCAACCUCCAAUGCAUCCCACCACAUGAUGAUGCCUGAAGAGCCUUGGUUUUUUG [C28U G45A],-2.04
6,GACCAAUCUGCCCUCAGAGCUCGAGAAUAUCUUCGGAUGCAGAGCAGGCAGGCUUCGGUGGCGCGAUAGCGCCAACGUCCUCAACCUCCAAUGCAUCCCACCACAUGAUGAUGCCUGAAGAGCCUUGGUUUUUUG [C28U G45C],-3.26
7,GACCAAUCUGCCCUCAGAGCUCGAGAAUAUCUUCGGAUGCAGAGGAGGCAGGCUUCGGUGGCGCGAUAGCGCCAACGUCCUCAACCUCCAAUGCAUCCCACCACUUGAUGACGCCUGAAGAGCCUUGGUUUUUUG [C28U A105U U112C],-4.9
8,GACCAAUCUGCCCUCAGAGCUCGAGAAUAUCUUCGGAUGCAGAGGAGGCAGGCUUCGGUGGAGCGAUAGCGCCAACGUCCUCAACCUCCAAUGCAUCCCACCACAUGAUGAUGCCUGAAGAGCGUUGGUUUUGUG [C28U C62A C124G U133G],-2.2
9,GACCAAUCUGCCCUCAGAGCUCGAGAAUAUCUUCGGAUGCAGAGGAGGUAGGCUUCGGUGGCGCGAUAGCGCCAACGUCCUCAACCUCCAAUGCAUCCCACCACAUGAUGAUGCCUGAAGAGCCUUGGUUUUUUG [C28U C49U],-3.27
10,GACCAAUCUGCCCUCAGAGCUCGAGAAUAUCUUCGGAUGCAGAGGAGGCAGGCUUCGGUGGCGCGAUAGCGCUAACGUCCACAACCUCCAAUGCAUCCCACCACACGAUGAUGCCUGAAGAGCCUUGGUUUUUUG [C28U C73U U81A U106C],-3.5
11,GACCAAUCUGCCCUCAGAGCUCGAGAAUAUCUUCGGAUGCAGAGGAGGCAGGCUUCGGUGGCGCGAUAGUGCCAACGUCCUCAACCUUCAAUGCAUCCCACCACAUGAUGAUGCCUGAAGAGCCUUGGUUUUUUG [C28U C70U C88U],-3.74
12,GACCAAUCUGCCCUCAGAGCUCGAGAAUAUCUUCGGAUGCAGAGGAGGCAGGCUUCGGUGGCGCGAUAGCGCCAACGUCCUCAACCUCCAAUGCAUCCCACCACAUGAUGAUGCCUGAGGAGCCUUGGUUUUUUG [C28U A119G],-1.04
13,GACCAAUCUGCCCUCAGAGCUCGAGAAUAUCUUCGGAUGCAGAGGAGGCUGGCUUCGGUGGCGCGAUAGCGCCAACGUCCUCAACCUCCAAUGCAUCCCACCACAUGAUGAUGCCUGAAGAGCCUUGGUUUUUUG [C28U A50U],-2.92
14,GACCAAUCUGCCCUCAGAGCUCGAGAAUAUCUUCGGAUGCAGAGGAGGCAGACUUCGGUGGCGCGAUAGUGCCAACGUCCUCAACCUCCAAUGCAUCCCACCACAUGAUGAUGCCUGAAGAGCCUUGGUUUUUUG [C28U G52A C70U],-3.7
15,GACCAAUCUGCCCUCAGAGCUCGAGAAUAUCUUCGGAUGCAGAGGAGGAAGGCUUCGGUGGCGCGAUAGCGCCAACGUCCUCAACCUCCAAUGCAUCCCACCACAUGAUGAUCCCUGAAGAGCCUUGGUUUUUUG [C28U C49A G113C],-3.97
16,GACCAAUCUGCCCUCAGAGCUCGAGAAUAUCUUCGGAUGCAGAGGAGGCAGACUUCGGUGGCGCGAUAGCGCUAACGUCCUCAACCUCCAAUGCAUCCCACCACAUGAUGAUGCCUGAAGAGCCUUGGUUUUUUG [C28U G52A C73U],-2.19
17,GACCAAUCUGCCCUCAGAGCUCGAGAAUAUCUUCGGAUGCAGAGGAGGCAGGCUUCGGUGGCGCGAUAGCGCCAACGUUCUCAACCUCCAAUGCAUCCCACCACAUGAUGAUGCCUGAAGAGCCUUGGUUUUUUG [C28U C79U],-1.61
18,GACCAAUCUGCCCUCAGAGCUCGAGAAUAUCUUCGGAUGCAGAGGAGGCAGUCUUCGGUGGCGCGAUAGCGCCAACGUCCUCAACCUCCAAUGCAUCCCACCACAUGAUGAUGCCUGAAGAGCCUUGGUUUUUUG [C28U G52U],-2.88
19,GACCAAUCUGCCCUCAGAGCUCGAGAAUAUCUUCGGAUGCAGAGGAGGCUGGCUUCGGUGGCGCGAUAGAGCCAACGUCCUCAACCUCCAAUGCAUCCCACCACAAGAUAAUGACUGAAGAGCCUUGGUUUUUUG [C28U A50U C70A U106A G110A C114A],-5.71
20,GACCAAUCUGCCCUCAGAGCUCGAGAAUAUCUUCGGAUGCAGAGGUGACAGGCUUCGGUGGCGCGAUAGCGCCAACGUCCUCAACCUCCAAUGCGUCCCACCACAUGAUGAUGCCUGAAGAGCGUUGGUUUUUUG [C28U A46U G48A A95G C124G],-3.31
21,GACCAAUCUGCCCUCAGAGCUCGAGAAUAUCUUCGGAUGCGGAGGAGGCAGGCUUCGGUGGCGCGAUAGCGCCAACGUCCUCAACCUCCAAUGCAUCCCACCACAUGAUGAUGCCUGAAGCGCCUUGGUUUUUUG [C28U A41G A121C],-0.919

row,Variant,polymerase ribozyme fitness (log ratio)
1,GACCAAUCUGCCCUCAGAGCUCGAGAAUAUCUUCGGAUGCAGACGAGGCAGGCUUCGGUGGCGCGAUAGCGCCAACGUUCUUAACCUCCAAUGCAUCCCACCACAUGAUGAUGCCUGAAGAGCCUCUGGUUUUUG [C28U G44C C79U C82U U126C G127U U129G],-3.26
2,GACCAAUCUGCCCUCAGAGCUCGAGAAUAUCUUCGGAUGCAGAGGAGUCAGGCUUCGGUGGCGCGAUAGCGCCAACGACCUCAACCUCCAAUGCAUCCCACCACAUGAUGAUGCCUGAAGAGCCUUGGUUUUUUG [C28U G48U U78A],-3.25
3,GACCAAUCUGCCCUCAGAGCUCGAGAAUAUCUUCGCAUGCAGAGGAGGCAGGCUUUGGUGGCGCGAUAGCGCCAACGUCCCCAACCUCCAAUGCAUCCCACCACAUGAUGAUGCCUGAAGAUCUUUGGUUUCUUG [C28U G36C C56U U81C G122U C124U U132C],-2.46
4,GACCAAUCUGCCCUCAGAGCUCGAGAAUAUCUUCGGAUGCAGAGGAGGCAGGCUUCGGUGGCGCGAUAGCGCCAACAUCCUCAACCUCCAAUGCAUCCCACCACAUGAUGAGGCCUGAAGAGCCAUGGUUUUUUG [C28U G77A U112G U125A],-3.35
5,GACCAAUCUGCCCUCAGAGCUCGAGAAUAUCUUCGGAUGCAGAGGAGGCAGGCUUUGGUGGCGCGAUAGCGCCAACGUCCUCAACCUCCAAUGCAUCCCAUCACAUGAUGAUGCCUGAAUAGCCUUGGUUUUUUG [C28U C56U C101U G120U],-2.65
6,GACCAAUCUGCCCUCAGAGCUCGAGAAUAUCUUCGGAUGCAGAGGAGGCAGGCUUCGGUGGCGCGAUAGCGCCAACGUCCUCAACCUCCAAUGCAUCCCACCACAUGAUGAUGCCUGAAGAGUCUUGGUUUUUUG [C28U C123U],-0.507
7,GACCAAUCUGCCCUCAGAGCUCGAGAAUAUCUUCGGAUGCAGAGCAGGCAGGCUUCGGUGGCGCGAUAGCGCCAAAGUCCUCAACCUCGAAUGCAUCCCACCACAUGAUGAUGCCUGAACAGCCUUGGUUUUUUG [C28U G45C C76A C89G G120C],-5.73
8,GACCAAUCUGCCCUCAGAGCUCGAGAAUAUCUUCGGCUGCAGAGGAGGCAGGCUUCGGUGGCGCGAUAGCUCCAACGUCCUCAACCUCCAAUGCAUCCCACCACAUGAUGAUGCCUGAAGAGCCUUGGUUUUUUG [C28U A37C G71U],-3.01
9,GACCAAUCUGCCCUCAGAGCUCGAGAAUAUCUUCGGAUGCAGAGGAGGCAGGCUUCGGUGGCGCGAUAGCGCCUACGUCCUCAACCUCCAAUGCAUCCCACCACAUGAUGAUGCCUGAAGAGCCUUGGUUUUUUG [C28U A74U],-2.33
10,GACCAAUCUGCCCUCAGAGCUCGAGAAUAUCUUCGGAUGCAGGGGAGGCAGGCUUCGGUGGCGCGAUAUCGCCAACGUCCUCAACCUCCAAUGCAUCCCACCACAUGAUGAUACCUGAAGAGCCUUGGUUUUUUG [C28U A43G G69U G113A],-1.82
11,GACCAAUCUGCCCUCAGAGCUCGAGAAUAUCUUCGGAUGCAGAGGAGGCAGGAUUCGGUGGCGCGAUAGCGCCAACGUCCUCAACCUCCAAUUCAUCCCACCACAUGAUGAUGCCUGAAGAGCCUUGGUUUUUUG [C28U C53A G93U],-4.15
12,GACCAAUCUGCCCUCAGAGCUCGAGAAUAUCUUCGGAUGCAGAGAAGGCAGGCUUCGGUGGCGCGAUAGUGCCAACGUCCUCAACCUCCAAUGCAUCCCACCACAUGAUGAUACCUGUAGAGCCUUGGUUCUUUG [C28U G45A C70U G113A A118U U131C],-4.94
13,GACCAAUCUGCCCUCAGAGCUCGAGAAUAUCUUCGGAUACAGAGAAGGCAGGCUUCGGUGGCGCGAUAGCGCCAACGUCCUCAACCUCCAAUGCAUCCCACCACAUGAUGAUGCCUGAAAAGCCUUGGUUUUUUG [C28U G39A G45A G120A],-2.28
14,GACCAAUCUGCCCUCAGAGCUCGAGAAUAUCUUCGGAUGAAGAGGAGGCAGGCUUCGGUGGCGCGAUAGCGCCAACGUCCUCAACCUCCAAUGCAUCCCACCACAUGAUGAUGCCUGAAGAGCUUUGGUAUUUUG [C28U C40A C124U U130A],-3.36
15,GACCAAUCUGCCCUCAGAGCUCGAGAAUAUCUUCGGAUGCAGAGGAGGCAGGCUUCGGUUGCGCGAUAGCGCCAACGUCCUCAACCUCCAAUGCAUCCCACCACAUGAUGAUGCCUGAAGAGCCUUGGUUUUUUG [C28U G60U],-1.24
16,GACCAAUCUGCCCUCAGAGCUCGAGAAUAUCUUCGGAUGCAGAGGAGGCAGGCUUCGGUAGCGCGAUAGCGCCAACGUCCUCAACCUCCAAUGCAUCCCACCACAUGAUGAUGCCUGAAGAGCCUUGGUUUUUUG [C28U G60A],-2.05
17,GACCAAUCUGCCCUCAGAGCUCGAGAAUAUCUUCGGAUGCAGAUGAGGCAGGCUUCGGAGGCGCGAUAGCGCCAACGUCCUCAACCUCGAAUGCAUCCCACCACAUGAUGAUGCCUGAAGAGCCUUGGUUUUUUG [C28U G44U U59A C89G],-4.37
18,GACCAAUCUGCCCUCAGAGCUCGAGAAUAUCUUCGGAUGCAGAGGAGGCAGGCUUCGGUGACGCGAUAGCGCCAACGUCCUCAACCUCCAAUGCAUCCCACCACAUGAUGACGCCUGAAGAGCCUUGGUUAUUUG [C28U G61A U112C U131A],0.223
19,GACCAAUCUGCCCUCAGAGCUCGAGAAUAUCUUCGGAUGCAUAUGAGGCAGGCUUCGGUGUCGCGAUAGCGCCAACGUCCUCAACCUCCAAUGCAUCCCACCACAUGAUGAUGCCUGAAGAGCCUUGGUUUUUUG [C28U G42U G44U G61U],-4.27
20,GACCAAUCUGCCCUCAGAGCUCGAGAAUAUCUUCGGAUGCAGAGGAGGCAGGCUUCGGUGGCGCGAUAGCGACAACGUCCUCAACCUCCAAUGCAUCCCACCACAUGAUGAUGCCUGAAGAGCCUUGGUUUUUUG [C28U C72A],-2.49
21,GACCAAUCUGCCCUCAGAGCUCGAGAAUAUCUUCGGAUGCAGAGGAGGCAGGCUUCUGUGGCGCGAUAGCGCCAACGUCCUCAACCUCCAAUGCAUCCCACCACAUGAUGAUGCCUGAAGAGCCUUGGUUUUUUG [C28U G57U],-1.3
